Source: PMC11626777

Tests used:
[1] = western blot of HDAC5 protein, mBMSCs; settings: glycan lost; control: DMSO
[2] = HDAC5 protein level in bone tissue; settings: glycan lost; control: Ogtfl/fl mice

B1: HDAC5: OSMI-1 (protein)
parent chain: MNSPNESDGMSGREPSLGILPRTPLHSIPVAVEVKPVLPGAMPSSMGGGGGGSPSPVELRGALAGPMDPALREQQLQQELLVLKQQQQLQKQLLFAEFQKQHDHLTRQHEVQLQKHLKQQQEMLAAKRQQELEQQRQREQQRQEELEKQRLEQQLLILRNKEKSKESAIASTEVKLRLQEFLLSKSKEPTPGGLNHSLPQHPKCWGAHHASLDQSSPPQSGPPGTPPSYKLPLLGPYDSRDDFPLRKTASEPNLKVRSRLKQKVAERRSSPLLRRKDGTVISTFKKRAVEITGTGPGVSSVCNSAPGSGPSSPNSSHSTIAENGFTGSVPNIPTEMIPQHRALPLDSSPNQFSLYTSPSLPNISLGLQATVTVTNSHLTASPKLSTQQEAERQALQSLRQGGTLTGKFMSTSSIPGCLLGVALEGDTSPHGHASLLQHVCSWTGRQQSTLIAVPLHGQSPLVTGERVATSMRTVGKLPRHRPLSRTQSSPLPQSPQALQQLVMQQQHQQFLEKQKQQQMQLGKILTKTGELSRQPTTHPEETEEELTEQQEALLGEGALTIPREGSTESESTQEDLEEEEEEEEEEEEDCIQVKDEDGESGPDEGPDLEESSAGYKKLFADAQQLQPLQVYQAPLSLATVPHQALGRTQSSPAAPGSMKSPTDQPTVVKHLFTTGVVYDTFMLKHQCMCGNTHVHPEHAGRIQSIWSRLQETGLLGKCERIRGRKATLDEIQTVHSEYHTLLYGTSPLNRQKLDSKKLLGPISQKMYAMLPCGGIGVDSDTVWNEMHSSSAVRMAVGCLVELAFKVAAGELKNGFAIIRPPGHHAEESTAMGFCFFNSVAITAKLLQQKLSVGKVLIVDWDIHHGNGTQQAFYNDPSVLYISLHRYDNGNFFPGSGAPEEVGGGPGVGYNVNVAWTGGVDPPIGDVEYLTAFRTVVMPIAQEFSPDVVLVSAGFDAVEGHLSPLGGYSVTARCFGHLTRQLMTLAGGRVVLALEGGHDLTAICDASEACVSALLSVELQPLDEAVLQQKPSVNAVATLEKVIEIQSKHWSCVQRFAAGLGCSLREAQTGEKEEAETVSAMALLSVGAEQAQAVATQEHSPRPAEEPMEQEPAL
[1]
  expression_or_secretion: increases

B2: HDAC5: Ogtfl/fl; Bglap-Cre (Ogt cKO) (protein)
parent chain: MNSPNESDGMSGREPSLGILPRTPLHSIPVAVEVKPVLPGAMPSSMGGGGGGSPSPVELRGALAGPMDPALREQQLQQELLVLKQQQQLQKQLLFAEFQKQHDHLTRQHEVQLQKHLKQQQEMLAAKRQQELEQQRQREQQRQEELEKQRLEQQLLILRNKEKSKESAIASTEVKLRLQEFLLSKSKEPTPGGLNHSLPQHPKCWGAHHASLDQSSPPQSGPPGTPPSYKLPLLGPYDSRDDFPLRKTASEPNLKVRSRLKQKVAERRSSPLLRRKDGTVISTFKKRAVEITGTGPGVSSVCNSAPGSGPSSPNSSHSTIAENGFTGSVPNIPTEMIPQHRALPLDSSPNQFSLYTSPSLPNISLGLQATVTVTNSHLTASPKLSTQQEAERQALQSLRQGGTLTGKFMSTSSIPGCLLGVALEGDTSPHGHASLLQHVCSWTGRQQSTLIAVPLHGQSPLVTGERVATSMRTVGKLPRHRPLSRTQSSPLPQSPQALQQLVMQQQHQQFLEKQKQQQMQLGKILTKTGELSRQPTTHPEETEEELTEQQEALLGEGALTIPREGSTESESTQEDLEEEEEEEEEEEEDCIQVKDEDGESGPDEGPDLEESSAGYKKLFADAQQLQPLQVYQAPLSLATVPHQALGRTQSSPAAPGSMKSPTDQPTVVKHLFTTGVVYDTFMLKHQCMCGNTHVHPEHAGRIQSIWSRLQETGLLGKCERIRGRKATLDEIQTVHSEYHTLLYGTSPLNRQKLDSKKLLGPISQKMYAMLPCGGIGVDSDTVWNEMHSSSAVRMAVGCLVELAFKVAAGELKNGFAIIRPPGHHAEESTAMGFCFFNSVAITAKLLQQKLSVGKVLIVDWDIHHGNGTQQAFYNDPSVLYISLHRYDNGNFFPGSGAPEEVGGGPGVGYNVNVAWTGGVDPPIGDVEYLTAFRTVVMPIAQEFSPDVVLVSAGFDAVEGHLSPLGGYSVTARCFGHLTRQLMTLAGGRVVLALEGGHDLTAICDASEACVSALLSVELQPLDEAVLQQKPSVNAVATLEKVIEIQSKHWSCVQRFAAGLGCSLREAQTGEKEEAETVSAMALLSVGAEQAQAVATQEHSPRPAEEPMEQEPAL
[2]
  expression_or_secretion: increases
